Data on 5 molecules can be found in article PMC12786357.

B1: Gpi16: N29Q (protein)
parent chain: MILTLAYFMLGTLLLGVFAEDTVSQIGINDSLWYPYDEALVLKPLPNNDLLLSFAFQLQSEPFDPAVSSMSYDAYEHYTTFPRAIPPLLESTATRQFHLRFTRGFWDALSWGQLPHAGKEAGASGVELWSQVQAMDQEQAFHNWKKLSNSLSGLFCSSLNFIDESRTTFPRRSYASDIGAPLFNSTEKLYLMRASLPNEPICTENLTPFIKLLPTRGKSGLTSLLDGHKLFDSLWNSISLDIATICSEDEDALCHYEMDARIEMVTHVPSALARGERPIPKPLDGNTLRCDTDKPFDSYQCFPLPEPSQTHFKLSQLFARPINNGNLFANRPTRICAEVDRSTWTAFLSVDDTIFSTHDNCFDLSNDQNEGGSGYDFILESTDTTKVTPIVPVPIHVSRSLTGNGQDRGGMRIVFHNDNDTPVKLIYFESLPWFMRVYLSSLQITSTTSPQLQENDIILDKYYLQAADRKRPGHLEFTMLIPANTDIVMTYQFDKALLQFAEYPPDANHGFEIDAAVITVLSLESSSSLYEMRTSTLLLSLSTPDFSMPYNVIILTSTIMGLIFGMLYNLMVKRMVTVEEADKITLQSGLKYKLLKLKEKFLGKKKTKTD
B2: Gpi16: N184Q (protein)
parent chain: B1 parent chain
B3: Gpi17: N228Q (protein)
parent chain: MSNANLRKWVGFCFVAIYLFLGVPLWYKLTTVYRASLPINYIESLQNNKFQDIHLVIPVYVKSDTYRFPDVHDAIQVQVNHLLNSQEQRVPWSLQVLPYNETIEQMESEGNQFHVVTLKLDEFIGYSSAYDTKETLVYYDDAAVLSNDLPFFVAQTLVEHTFQLEWTHLNKTCEGVSTNNDVAISYDPNIHLSVTLLSGDGNPVAWEIEPTLTDYFSPFRKFLSPLVNFTVDSSIVYHNDLNLHSLNGSCTSVTWFDLSHTIDLSELSSMAYYPEDSALNLAIVFPSASSSPDGLAFINGTRISDEITTLDWNSYLVPQWGVIIINKMPLKPNSVISEDYLEPMMYRFATDIFQLLGLTEGSQDLLSPYITIDSFKRLTILQNLDKATETLWSLVKLTQQFQGMSIPREVSDNVIEALDLRLQIIDLLNDPGKGGDIVWNNALHLSNELVKLCEKAFFNGEMVQQNFFPQEHMIAVYLPLLGPISAVMFFGFYNVMKEKNQKSKKNGTEREVAKEKLELKEAQKLHAIDGEDEL
B4: Gpi17: N299Q (protein)
parent chain: B3 parent chain

For one series, the target named is S. cerevisiae GPI transamidase (GPIT) complex (S. cerevisiae). The series is described as follows: cryo-EM structure; dimeric GPIT peak of the SEC, about 5 mg/mL, in GDN; overall resolution 4.4 Å; two copies of the monomer model docked as rigid bodies.
Settings: not given
By stoichiometry N is commonly meant a count of units in the complex or per binding partner. Molecule “S. cerevisiae GPI transamidase (GPIT) complex” registered a stoichiometry N of 2.

Target in another series: not listed separately
The series is described as follows: FACS, surface GFP-V5-CWP2 in yeast chromosomal mutants. To be noted: glycan lost; control: wild type. A general note: A flow cytometer gives signals particle by particle.
Consider B1, for which the enzymatic_activity result is “no change”.

With B2, the enzymatic_activity result is given as “no change”.

B3: the enzymatic_activity result is reported as “decreases”.

Take B4: the enzymatic_activity entry is on record as “decreases”.

Target in a further series: not listed separately
Put plainly: anti-FLAG western blot, HEK293F. To be noted: glycan lost; control: wild type. Background: Immunoblotting shows a protein as a band on a membrane.
Regarding B1, the expression_or_secretion entry was “no change”.

On to B2, for which the expression_or_secretion result was “no change”.

As for B3, the expression_or_secretion entry is recorded as “no change”.

For the molecule B4, the expression_or_secretion result was “no change”.
